Substitutions are numbered along the chain they refer to.
B1: 16E17 (antibody, V domains shown)
VH: QIQLVQSGPELKKPGETVKISCKASGYAFTTYGMSWVKQAPGKGLKWMGWINTYSGVPKYADDFKGRFAFSLETSASTAYLHINNLKNEDTATYFCGRHYYGSSYFDYWGQGTTLTVSS
VL: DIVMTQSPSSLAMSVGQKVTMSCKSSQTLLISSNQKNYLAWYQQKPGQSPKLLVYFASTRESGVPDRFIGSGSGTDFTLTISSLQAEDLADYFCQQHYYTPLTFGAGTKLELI
notes: From mouse immunisation; only variable domains given
B2: 18K07 (antibody, V domains shown)
VH: QIQLVQSGPELKKPGETVKISCEASGYTFTTYGMNWVKQAPGKGLKWMGWINTYSGVPTYADDFQGRFAFSVETSATTAYLQINNLKNEDAATYFCARSDDTYYGFAYWGQGTLVTVSA
VL: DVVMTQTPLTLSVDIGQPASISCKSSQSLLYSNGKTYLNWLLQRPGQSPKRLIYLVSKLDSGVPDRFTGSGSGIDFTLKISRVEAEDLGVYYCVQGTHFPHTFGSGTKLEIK
notes: as for B1
B3: 19L04 (antibody, IgG4, V domains shown)
VH: B1 VH with A28T, K59T, H82Q, N88I, G97A, S104H
VL: DIMMTQSPSSLAMSVGQKVTLRCKSSQSLLNSSNQKNYLAWYQQKPGQSPKLLVYFASTRESGVPVRFIGSGSGTDFTLTISSMQAEDLADYFCQQHYFSPLTFGAGTKLELK
notes: as for B1
B4: 19N05 (antibody, V domains shown)
VH: B1 VH with A28T, K59T, Y60F, H82Q, Y94F, G97A, H99N, S103N, S104H
VL: DVQITQSPSYLAASPGETISINCRASNNINKYLAWYQEKPGKTNKLLIYSGSTLQSGIPSRFSGSGSGTDFTLTISSLEPEDFAMYHCQQHNYYPLTFGAGTKLELK
notes: as for B1
B5: 10F01 (antibody, IgG4, V domains shown)
VH: EVQLVQSGGGLVQPGGSLRLSCAASGFTFSSYAMSWVRQAPGKGLEWVSALRGGDGGTYHADSVKGRFTISGDSSKNTLYLQMNSLRAEDTAVYYCARRMVGAAYAFDIWGQGTMVTVSS
VL: LPVLTQPHSVSESPGKTVTISCTRSSGSIADNFVQWYRQRPGSAPTTVIYEGDQRPSGVPGRFSGSIDSSSNSASLTISGLQTDDEADYYCQSFDSYNRRTHVVFGGGTKLTVL
B6: 03D07 (antibody, IgG4, V domains shown)
VH: EVKLLESGGGLVQPGGSLRLSCAASGFTFSSYALSWVRQAPGKGLEWVSAISGSGGNTYYADSVKGRFTISRDNSKNTLYLQMNSLRAEDTAVYYCAKVVGATNYWGQGTLVTVSS
VL: DIVMTQTPLSLPVTLGQPASISCRSSQSLVYSDGHTYLSWFHQRPGQSPRRLIYKVSIRDSGVPDRFSGSGSGTDFTLKISRVEAEDVGVYYCMQRLQIPLTFGGGTKVEIK
B7: 20I15 (antibody, V domains shown)
VH: EVKLVESGGGLVQPGGSLSLSCAASGFTFTDYYMSWVRQPPGKALEWLGFIRNKANGYTTEYSASVKGRFTISRDNSQSILYLQMNALRAEDSATYYCARTYLRRGYFDVWGTGTTVTVSS
VL: DIVLTQSPASLAVSLGQRATISCRASKSVSTSGYSYMHWFQQKPGQPPKLLIYLASNLESGVPARFSGSGSGTDFTLNIHPVEEEDAATYYCQHSRELPLTFGAGTKLELK
notes: From mouse immunisation; only variable domains given; also called 20115
B8: 5E12 (antibody, V domains shown)
VH: EIQLQQSGAELVRPGASVKLSCTASGFNIKDDYIHWVKQRPEQGLEWIGRIDPANGNTKSAPKFQDKATITADTSSNTAYLHLSSLTSEDTAVYYCSIRFAYWGQGTLVTVSA
VL: DVVMTQTPLSLSVSLGDQASISCRSSQSLVYRNGDTYLHWFLQKPGQSPKLLIYKVSNRFSGVPDRFSGSGSGTDFTLKISRVEAEDLGIYFCSQNTHVPYTFGGGTKLEIK
notes: Mouse hybridoma mAb; only variable domains given
B9: 18F02 (antibody, V domains shown)
VH: QVQLQQPGAELVKPGASVKLSCKASGYTFTSYWMHWVKQRPGQGLEWIGMIHPNSGRTNYNEKFKSKATLTVDKSSSTAYMQLSSLTSEDSAVYYCARSDYWGQGTTLTVSS
VL: DIVMTQAAFSNPVTLGTSASISCRSSKSLLHSDGITYLYWFLQRPGQSPQLLIYRMSNLASGVPDRFSGSGSGTDFTLRISRVEAEDVGVYYCAQMLEFPRTFGGGTKLEIK
notes: as for B1
B10: 16L15 (antibody, V domains shown)
VH: DVKLVESGGGLVKLGGSLKLSCAASGFTFSSYYMSWVRQTPEKRLEWVATISNGGGSTYYPDSVKDRFTISRDNAKNTLYLQMSSLNSEDTAVYYCAKPLYYSNPWFAYWGQGTLVTVSA
VL: DVLLTQTPLSLPVSLGDQASISCRSSQSIVHSNGNTYLEWYLQKPGQSPKLLIYKVSNRFSGVPDRFSGSGSGTDFTLKISRVEAEDLGVYYCFQGSHVPRTFGGGTKLEIK
notes: as for B1
B11: 19I01 (antibody, V domains shown)
VH: EVQLVESGGGLVKPGGSRKLSCAASGFTFSDYGMHWVRQAPEKGLEWVAYISSGSSTIYYADTVKGRFTISRDNAKNTLFLQMTSLRSEDTAMYYCARGVDGYWGQGTTLTVSS
VL: DVVMTQTPLSLPVSLGDQASISCRSSQSLVHSNGNTYLHWYLQKPGQSPKFLIYKVSNRFSGVPDRFSGSGSGTDFTLKISRVEAEDLGVYFCSQTTHVPLTFGAGTKLELK
notes: From mouse immunisation; only variable domains given; also called 19101

Biological target: T1, Recombinant human PSGL-1(ECD)-hFc1 (R&D Systems, Cat. 3345-PS) (human, UniProt Q14242 42-305)
T1 construct: Bought; Gln42-Val295 counted on AAC50061; also called PSGL-1-Fc; PSGL-1-hFc1 chimera; not shown: human IgG1 Fc, Pro100-Lys330
T1 sequence: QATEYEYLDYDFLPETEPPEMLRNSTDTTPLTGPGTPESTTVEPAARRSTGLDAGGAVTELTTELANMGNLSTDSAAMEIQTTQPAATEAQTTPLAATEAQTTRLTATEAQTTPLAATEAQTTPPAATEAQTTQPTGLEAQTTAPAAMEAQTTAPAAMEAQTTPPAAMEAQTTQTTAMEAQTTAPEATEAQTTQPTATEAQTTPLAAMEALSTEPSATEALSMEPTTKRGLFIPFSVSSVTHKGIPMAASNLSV
Experiment: Octet tandem; competitor 18F17
Experimental: (§1) Antibody binning was performed by ForteBio Octet® using a tandem assay format, with anti-human IgG biosensor-immobilized PSGL-1(ECD)-hFc1 protein, binding of competitor mAb followed by analyte antibody. As competition controls, the same antibody was competed against itself, and mAb competition was performed bidirectionally.
(§2) Antibody binning by tandem octet was performed by immobilizing 10 ug/mL PSGL-1(ECD)-hFc1 (R&D Systems, Cat. #3345-PS) in PBS, pH 7.4, onto anti-human IgG capture biosensors (ForteBio, Cat. #18-5060), binding of 100 nM competitor antibody for 300 sec., followed by binding of 100 nM of analyte mAb for 300 s in kinetic buffer (0.1% BSA in PBS containing 0.02% tween 20 and 0.05% sodium azide, pH 7.4). Synagis (Johnson et al. (1997) J. Infect. Dis. 176:1215-1224) served as a negative control mAb for competition. An Fc quench step (0.25 mg/mL human IgG Fcl; BioXcell, Cat. #BE0096, in kinetic buffer) was included when human mAbs were tested to prevent high background from the antibodies binding to the anti-human IgG biosensor. Biosensor regeneration buffer consisted of 10 mM glycine, pH 2.0.

Row | Binder | % binding of analyte mAb [%]
1 | B1 | 93.8
2 | B2 | 91.4
3 | B3 | 81.4
4 | B4 | 65.3

Biological target: T2, Biotin sY51 PSGL-1(42-62) peptide (human, sulfotyrosine at Y51; C-terminal Lys-biotin)
T2 construct: also called Y51(SO3) PSGL-1(42-62)
T2 peptide: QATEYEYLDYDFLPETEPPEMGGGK
Experiment: capture ELISA; against 3 x sY peptide
Experimental: (§3) Two ELISA methods were performed. One procedure detected mAb binding to its plate-immobilized target and the other measured the immobilized antibody's ability to capture biotinylated PSGL-1₄₂₋₆₂. […] The plate was incubated for 45 min at 37° C. Plates were washed 3 times with wash buffer (PBS containing 0.05% tween 20, pH 7.4) and a single concentration (2 to 500 nM) or serially diluted (0.002-100 nM) anti-PSGL-1 mAb was added (25 ul/well) in assay buffer into appropriate wells. The plate was incubated for 45 min at 37° C., washed 3 times, and an appropriate HRP-conjugated secondary antibody added (25 ul/well) (HRP goat anti-mouse or anti-human IgG). After 45 min incubation at 37° C., the plate was washed, and antibody bound to plate-immobilized target was determined at A450 nm using HRP substrate (3,3′,5,5′-etramethylbenzidine (TMB)). For each antibody, duplicate values were averaged and assay background was subtracted. Except for the following, ELISAs involving plate-immobilized mAb capturing of biotinylated PSGL-1₄₂₋₆₂ peptides was performed in the same manner as described above: 3 ug/mL/25 ul per well of mAb was coated directly onto microtiter plate wells; biotinylated unmodified or sulfotyrosine PSGL-1₄₂₋₆₂ was serially diluted (3 nM-3 uM) into appropriate wells, and antibody-bound peptide was detected using HRP-streptavidin (Jackson Immunoresearch, Cat. #016-030-084).

Row | Binder | EC50/EC50 3x(SO3)Y [fold]
5 | B5 | ~36
6 | B6 | ~5
7 | B7 | ~10

Biological target: T3, Biotin Y46,48,51(SO3) PSGL-1(42-62) peptide (human, sulfotyrosine at Y46, Y48 and Y51; C-terminal Lys-biotin)
T3 construct: also called fully sulfated N-terminal PSGL-1 peptide
T3 peptide: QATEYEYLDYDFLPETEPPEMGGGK
Experiment: capture ELISA; against 3 x sY peptide
Experimental: as §3

Row | Binder | EC50/EC50 3x(SO3)Y [fold]
8 | B5 | 1
9 | B6 | 1
10 | B7 | 1

Biological target: T4, Biotin sY48 PSGL-1(42-62) peptide (human, sulfotyrosine at Y48; C-terminal Lys-biotin)
T4 construct: also called sY48S
T4 peptide: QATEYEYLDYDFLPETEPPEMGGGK
Experiment: capture ELISA; against 3 x sY peptide
Experimental: as §3

Row | Binder | EC50/EC50 3x(SO3)Y [fold]
11 | B5 | ~2000
12 | B6 | > 100
13 | B7 | ~10

Biological target: T5, Biotin sY46 PSGL-1(42-62) peptide (human, sulfotyrosine at Y46; C-terminal Lys-biotin)
T5 peptide: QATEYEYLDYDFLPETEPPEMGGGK
Experiment: capture ELISA; against 3 x sY peptide
Experimental: as §3

Row | Binder | EC50/EC50 3x(SO3)Y [fold]
14 | B5 | ~2000
15 | B6 | 25
16 | B7 | ~10

Biological target: T1, Recombinant human PSGL-1(ECD)-hFc1 (R&D …)
Experiment: Octet tandem; competitor 18K07
Experimental: as §1, §2

Row | Binder | % binding of analyte mAb [%]
17 | B1 | 67.4
18 | B2 | 35.2
19 | B3 | 50.5
20 | B4 | 0

Biological target: T1, Recombinant human PSGL-1(ECD)-hFc1 (R&D …)
Experiment: Octet tandem; competitor 16E17
Experimental: as §1, §2

Row | Binder | % binding of analyte mAb [%]
21 | B1 | 16.3
22 | B2 | 11.7
23 | B3 | 61.9
24 | B4 | 29.1

Biological target: T1, Recombinant human PSGL-1(ECD)-hFc1 (R&D …)
Experiment: Octet tandem; competitor 19L04
Experimental: as §1, §2

Row | Binder | % binding of analyte mAb [%]
25 | B1 | 0
26 | B2 | 0
27 | B3 | 35.9
28 | B4 | 39.4

Biological target: T6, Human complement C4 protein (Millipore Sigma, Cat. 204886) (human, UniProt P0C0L4 20-675; P0C0L4 680-1446; P0C0L4 1454-1744, limits assumed, natural sulfotyrosines)
T6 construct: mature
Experiment: ELISA, 50 nM mAb on plate-bound protein
Experimental: Recombinant PSGL-1-hFc1 chimera protein consisting of PSGL-1's extracellular domain (ECD) served as a positive control. […] Primary antibody was added (25 ul per well) in duplicate at 50 nM in assay buffer (blocking buffer containing 0.05% Tween®20) into test and control (just blocked) wells and the plate incubated for 45 min at 37° C.

T6 sequence (P0C0L4 20-675 limits assumed, form in doubt, chain 1 of 3): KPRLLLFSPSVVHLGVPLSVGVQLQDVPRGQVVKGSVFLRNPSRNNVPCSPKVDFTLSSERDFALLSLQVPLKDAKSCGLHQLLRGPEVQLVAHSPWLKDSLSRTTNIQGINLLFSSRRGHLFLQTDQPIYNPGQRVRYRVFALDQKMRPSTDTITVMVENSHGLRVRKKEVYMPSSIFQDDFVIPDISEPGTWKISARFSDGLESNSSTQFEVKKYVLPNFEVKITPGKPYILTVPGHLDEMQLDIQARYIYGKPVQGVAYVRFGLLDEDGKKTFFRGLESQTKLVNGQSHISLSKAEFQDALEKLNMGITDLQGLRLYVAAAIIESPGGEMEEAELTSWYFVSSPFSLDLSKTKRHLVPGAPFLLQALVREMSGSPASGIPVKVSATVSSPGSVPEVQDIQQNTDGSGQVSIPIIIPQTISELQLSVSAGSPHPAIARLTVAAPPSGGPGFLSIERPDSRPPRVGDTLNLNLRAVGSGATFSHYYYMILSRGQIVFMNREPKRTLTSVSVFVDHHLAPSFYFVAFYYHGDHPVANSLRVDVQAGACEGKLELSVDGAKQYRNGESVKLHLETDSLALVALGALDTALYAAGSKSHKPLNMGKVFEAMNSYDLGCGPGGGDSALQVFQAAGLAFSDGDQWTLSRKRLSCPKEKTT
T6 sequence (P0C0L4 680-1446 limits assumed, form in doubt, chain 2 of 3): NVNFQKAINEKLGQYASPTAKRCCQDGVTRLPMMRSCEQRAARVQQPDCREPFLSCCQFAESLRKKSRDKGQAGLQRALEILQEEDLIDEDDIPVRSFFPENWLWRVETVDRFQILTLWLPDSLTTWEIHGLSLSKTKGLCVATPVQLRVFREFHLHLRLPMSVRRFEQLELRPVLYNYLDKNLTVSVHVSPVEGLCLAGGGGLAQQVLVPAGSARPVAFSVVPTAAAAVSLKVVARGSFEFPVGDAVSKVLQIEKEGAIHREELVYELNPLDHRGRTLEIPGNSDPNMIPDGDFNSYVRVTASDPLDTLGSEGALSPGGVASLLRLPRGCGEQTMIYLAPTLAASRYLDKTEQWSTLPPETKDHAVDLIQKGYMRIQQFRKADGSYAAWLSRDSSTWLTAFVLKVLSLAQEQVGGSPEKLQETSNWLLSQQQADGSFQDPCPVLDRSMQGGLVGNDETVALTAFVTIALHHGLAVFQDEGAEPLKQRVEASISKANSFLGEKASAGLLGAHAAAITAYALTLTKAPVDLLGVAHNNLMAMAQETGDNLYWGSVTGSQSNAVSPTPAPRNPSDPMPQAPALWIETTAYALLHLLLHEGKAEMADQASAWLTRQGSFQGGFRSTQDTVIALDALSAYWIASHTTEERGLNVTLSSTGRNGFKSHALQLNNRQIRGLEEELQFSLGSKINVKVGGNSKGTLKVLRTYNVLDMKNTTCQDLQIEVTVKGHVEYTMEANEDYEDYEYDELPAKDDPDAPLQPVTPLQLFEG
T6 sequence (P0C0L4 1454-1744 limits assumed, form in doubt, chain 3 of 3): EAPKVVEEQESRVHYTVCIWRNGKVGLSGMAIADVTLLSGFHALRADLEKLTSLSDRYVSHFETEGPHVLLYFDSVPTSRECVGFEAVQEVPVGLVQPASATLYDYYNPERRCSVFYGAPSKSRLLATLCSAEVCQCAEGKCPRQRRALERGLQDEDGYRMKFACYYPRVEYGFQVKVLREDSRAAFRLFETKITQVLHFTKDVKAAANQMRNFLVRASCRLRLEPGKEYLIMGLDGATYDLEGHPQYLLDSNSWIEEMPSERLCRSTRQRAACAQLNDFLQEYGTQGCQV

Row | Binder | % of binding to PSGL-1(ECD)-hFc1 [%]
29 | B8 | ≤ 10
30 | B9 | ≤ 10
31 | B10 | ≤ 10
32 | B11 | ≤ 10
33 | B5 | ≤ 10

Biological target: T1, Recombinant human PSGL-1(ECD)-hFc1 (R&D …)
Experiment: Octet tandem; competitor 15A7
Experimental: as §1, §2

Row | Binder | % binding of analyte mAb [%]
34 | B1 | 21
35 | B2 | 23.9
36 | B3 | 28.3
37 | B4 | 36

From patent US20220396632A1 (VERSEAU THERAPEUTICS, published 2022)
